Target: T1, VEGFR1, stably expressed in PAE cells (PAE-Flt1) (UniProt P17948 27-1338, limits assumed)
T1 construct: whole, on cells
Assay: co-immunoprecipitation with anti-TCPTP from PAE-Flt1 cells transfected with the substrate-trapping mutant, immunoblot
Protocol: Immunoprecipitations. […] After washings, the immunocomplexes were resolved on SDS-PAGE and subjected to immunoblotting. Aliquots of the original lysates (5% from IP input) were analyzed in parallel to control for protein expression.

T1 sequence (P17948 27-1338 limits assumed): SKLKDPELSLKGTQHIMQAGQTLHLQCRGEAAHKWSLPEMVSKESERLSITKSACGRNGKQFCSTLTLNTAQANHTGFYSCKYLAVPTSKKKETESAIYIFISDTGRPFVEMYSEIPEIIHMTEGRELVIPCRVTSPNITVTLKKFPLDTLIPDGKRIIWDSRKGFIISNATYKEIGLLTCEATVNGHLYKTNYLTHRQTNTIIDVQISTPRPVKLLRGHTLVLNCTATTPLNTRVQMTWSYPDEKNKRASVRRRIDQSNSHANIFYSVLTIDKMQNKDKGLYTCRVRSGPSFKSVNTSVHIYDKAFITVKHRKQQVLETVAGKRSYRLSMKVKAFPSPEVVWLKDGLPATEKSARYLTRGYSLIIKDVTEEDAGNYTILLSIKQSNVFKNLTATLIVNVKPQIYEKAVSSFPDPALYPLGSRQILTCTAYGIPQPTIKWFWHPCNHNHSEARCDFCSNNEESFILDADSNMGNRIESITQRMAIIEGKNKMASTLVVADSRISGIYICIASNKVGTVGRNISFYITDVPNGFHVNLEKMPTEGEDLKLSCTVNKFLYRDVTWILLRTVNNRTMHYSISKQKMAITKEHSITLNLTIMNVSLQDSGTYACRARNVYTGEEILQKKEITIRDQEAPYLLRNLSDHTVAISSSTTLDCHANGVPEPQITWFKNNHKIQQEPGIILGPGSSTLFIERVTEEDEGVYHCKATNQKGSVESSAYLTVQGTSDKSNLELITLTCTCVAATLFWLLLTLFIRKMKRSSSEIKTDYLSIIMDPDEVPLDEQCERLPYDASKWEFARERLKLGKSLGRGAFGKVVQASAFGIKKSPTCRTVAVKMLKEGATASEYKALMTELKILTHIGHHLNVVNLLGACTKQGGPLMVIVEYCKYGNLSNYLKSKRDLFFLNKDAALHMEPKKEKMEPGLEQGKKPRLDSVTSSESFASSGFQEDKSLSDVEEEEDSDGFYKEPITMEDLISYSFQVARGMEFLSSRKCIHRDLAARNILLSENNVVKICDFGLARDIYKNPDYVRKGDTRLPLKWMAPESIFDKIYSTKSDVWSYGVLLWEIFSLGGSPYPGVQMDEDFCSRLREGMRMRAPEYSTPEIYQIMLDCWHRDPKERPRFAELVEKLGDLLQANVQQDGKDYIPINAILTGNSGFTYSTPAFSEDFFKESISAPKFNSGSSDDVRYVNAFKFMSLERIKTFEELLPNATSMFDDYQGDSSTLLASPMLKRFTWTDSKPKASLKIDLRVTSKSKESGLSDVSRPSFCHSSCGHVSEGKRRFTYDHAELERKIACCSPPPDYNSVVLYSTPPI

B1: substrate-trapping mutant of TCPTP (TCPTP-D182A) (enzyme, UniProt P17706-2 1-387, looked up)
chain: MPTTIEREFEELDTQRRWQPLYLEIRNESHDYPHRVAKFPENRNRNRYRDVSPYDHSRVKLQNAENDYINASLVDIEEAQRSYILTQGPLPNTCCHFWLMVWQQKTKAVVMLNRIVEKESVKCAQYWPTDDQEMLFKETGFSVKLLSEDVKSYYTVHLLQLENINSGETRTISHFHYTTWPAFGVPESPASFLNFLFKVRESGSLNPDHGPAVIHCSAGIGRSGTFSLVDTCLVLMEKGDDINIKQVLLNMRKYRMGLIQTPDQLRFSYMAIIEGAKCIKGDSSIQKRWKELSKEDLSPAFDHSPNKIMTEKYNGNRIGLEEEKLTGDRCTGLSSKMQDTMEENSESALRKRIREDRKATTAQKVQQMKQRLNENERKRKRPRLTDT
notes: Expressed by transient transfection in HEK293 or PAE-Flt1 cells and immunoprecipitated from lysates with anti-TCPTP; also called pCG-TC45-D182A; T-cell protein tyrosine phosphatase D182A
B1: no binding.
